In the nanobody polyreactivity screen of Harvey et al. (2022):

Test: yeast display, Sf9 membrane polyspecificity reagent, FACS + sequencing; frameworks hold sequencing errors
In short: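 A synthetic nanobody library was expressed on Saccharomyces cerevisiae BJ5465 by galactose induction for 36–48 hours. The library was stained for 1 hour at 4 °C with 10% biotinylated, detergent-solubilized Sf9 membrane reagent and enriched with streptavidin microbeads before FACS. Low and high (top ~1%) gates were set on anti-HA fluorescence for expression and streptavidin fluorescence for reagent binding, and each polyreactivity label reflects the gate of origin.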

Sequence | polyreactivity (PSR sort gate)
QVQLVESGGGLVQAGGSLRLICDASGRIFSFNAMGWSRQAPGKETELVAGITYGGNTYYADSVKGRFTISRDNANNTVYLQMNSLKPEDTAVYYCSAVRGVRHDYWGQGTQVTVSS | low polyreactivity
QVQLVESGGGLVQAGGSLRLSCAASGSTLEYYAMGWYRQAPGKERELVAAISSGGSTNYADSVKGRFTISRDNAKNTVYLQMNSLKTEDTAVYYCAAERYYRFVYTCYDYWGQGTQVTVSS | high polyreactivity
QVQLVESGGGLVQAGGSLRLSCASSGRIFKKYAMGWYIQAPGKERELVATISSGGSTYYADSVKGRFTISRDNAKNTVYLQMNSLKREDTAGSYCARREYVRRDYFVTTYDYWGQGTQVTVSS | low polyreactivity
QVQLVESGGGLVQAGGRLRLTCAASGSIFGSYAMGWYRQEPGIERELVAAIRGRGGNTYYADSVKGRFTISRDNAKNTVYLQMNSLKPQDTAVYYCAAQSFAQYGWRYGYWGQGTQVTLSS | high polyreactivity
QVQLVESGGGLVQAGGSLRLSCAASGIIFVLYTMGWYIQAPGKERELVATINWGGGNTYYADSVKGRFTISRDNAKNTVYFQMNSLKPEDTAVYYCAAAYTWYGYSQAYYYWGQGTQVTVSS | low polyreactivity
QVQLVESGGGLVQAGGSLRISCAASGSIFTRYAMGWYRQAPGKERELVAAIRTSGGSTYYADSVKARFTISRDNAKNTVYFQMNSLKPEDTAVYYCARRYYKSNFYYWGQGTLVTVSS | high polyreactivity
QVQLVESGGGLVQAGGSLRLSCAASGRTSLAYSMGWYRQAPGKERELVAAINTRGGSTYYADSVKGRFTISRDNAKNTVYLQINSLKPEDTAVYYCAKGPRLYFTPDKAHWKYDSWGQGTQVTVSS | low polyreactivity
QVQLVESGGGLVQAGGSLRLSCAASGRIFRYNAMGWYRQAPGKERELVAAISSGGSTNYADSVKGRFTTSRDNAKNTVYLQMNSLKPEDTAVYYCNAESVHRYPGWGYDYWGQGTQVTVSS | low polyreactivity
QVQLVESGGGLVQAGGSLRLSCAASGSIFGRNAMGWYRQAPGKERELVAVISKRSGNTYYADSVKGRFTISRDNAKNTVYLQLNSLKPEDTAVYYCNAVDQKLLRYDYWGQGTQVTVSS | high polyreactivity
QVQLVESGGGLVQAGGSLRLSCAASGSTFVFYAMGWYRQAPGKERELVATISSGGSTYADSVKGRFTISRDNAKNTVYLQMYSLKPEDTAVYYCAADSLFGHYDYWGQGTQVTVSS | low polyreactivity
QVQLVESGGGLVQAGGSLRLSCAASGSIFVYVMGWYRQAPGKERELVAAISSGGSTDYADSVKGRFTISRDNAQNTVYLQMNSLKPEDTAVYYCAADTDTGYTYYYWGQGTQVTVSS | low polyreactivity
QVQLVESGGGIVQAGGSLRLSCAASGFIIRPYAMGWYRQAPGKERELVAAITGGGSTYYADSVKGRFTISRDNAKNTVYLQMNSLKPEDTAVYYCNADRRRRSGGFAGWHFQRNVYWGQGTQVTLSS | low polyreactivity
QVHLVESGGGLVQAGGSLRLTCAASGRTFPGYDMGWYRQAPGKERELVAAISWSGTSTYYADSVKGRFTISRDNSKNTVYLQMNSLIPEDTAVYYCAARVKGQWNTYEYWGQGTQVTVSS | high polyreactivity
QVQLVESGGGLVQAGCSLRLSCAASGRIFVEYAMGWYRQAPGKVTELVAAINSGGSTNYADSVKGRFTISRDNAKNTVYLQMNSLKPEDTAVYYCNIDTLVYGYVQDYEYWGQGSQVTVSS | low polyreactivity
QVQLVESGGGLVQAGGSLRLSCAASGSIFTKYAMGWYRQAPGKERELVAAINARGGSTYYADSVKGRFTISRDNAKNTVYLQMNSLKPEDTAVYYCAARYGVGRADYYWGHGTQVTVSS | high polyreactivity
QVQLVESGGGLVQAGGSLRLSCAASGFIFYTYAMGWYRQAPGKERELGADITSGGSTYYADSVKGRFTISRDNAKNTVYLQMNSLKPEDTAVYYCAADPGYPANRTEWRDFDYWGQGTQVTVSS | low polyreactivity
QVQLVESGGGLVQAGGSLRLSCAASGRIFGTNAMGWYRQAPGKERELVAAINGSDSSTYYADSVKGRFTISRDNAKNTVYLQMNSLKPEDTAVYYCAADWDFFQQGANGAPYDYWGQGTQVTVSS | low polyreactivity
QVQLVESGGGLVQAGCSLRLSCAASGRILFGYAMGWYRQAPGKERELVADITSTGSTNYADSVKGRFTISRDNAKNTVYLQMNSLKPEDTAVYYCNARRESYYQRYRVDYWGQGTQVTVSS | low polyreactivity
QVQLVESGGGLVQAGGSLRLSCAASGFTFYYNDMGWYRQAPGKERELVATITNS | low polyreactivity
QVQLVESGGGLVQAGGSLRLSCAASGSILPYYAMGWYRPAPGKERELVATITDGTDTYYADSVKGRFTISRDNAKNTVYLQMTSLKPEDTAVYYCARKQYWGYDYWGQGTQVTVSS | low polyreactivity
QVQLLESGGGLVQAGGTLPLSCAASGRTFKYYAMGWYRQAPGKERELVAGISSTGRTNYADSVKGRFTISRDNAKNTVYLEMNSLKPEDTAVYYCNAERKSFGKFVYWGQGTLVTVSS | high polyreactivity
QVQLVESGGGLVQAGGSLRLSCAASGRTFTTYAMGWYRQAPGKERELVAAITSGGSTNYADSVKGRFTISRDNAKNTVYLQMNSLKPEDTAVYYCAARFRVYTYSQRHWREFGYWGQGTQVTVSS | high polyreactivity

Sequence | polyreactivity (PSR sort gate)
QVQLVESGGGLVQAGGSLRLSCAASGSTFRKYTMGWYRQAPGKERELVASISRRGGSTYYADSVKGRFTISRDNAKNTVYLQMNSLKPEDTAVYYCNVTYSQYGYDYWGQGTQVTVSS | high polyreactivity
QVQLVESAGGLVQAGGSLRLSCAASGRIFGYNAMGWYRQAPGKERELVAVITYSGGSTYYADSVKGRFTISRDNAKNTVYLQMNSLKPEDTAVYYCAKATTWGYFRVWSTRYYYWGQGTQVTVSS | low polyreactivity
QVQLVESGGGLVQAGGSLRLSCAASGFTFRYYTMGWYRQAPGKERELVAAITASGSSTYYADSVKGRFTISRDNAKNTVYLQMNSLKPEDTAVYYSKALHFYGVGRYDHWGQGNQVTVSS | high polyreactivity
QVQLVESGGGLVQAGGSLRLRCAASGFIFDYYAMGWYRQAPGKEWELVAGISWSGGSTYYADSVKGRFTISRDNAKNTVYLQMNSLKPEDTAVYYCATDDYLVIFEYDYWGQGTQVTVSS | low polyreactivity
QVQLVESGGGLVQAGGSLRLSCAASGIIFRYYAMGWYRQAPGKEREFVAAINYSGGSTYYADSVKGRFTISRDNAKYSVYLLMNSLKPEDTAVYYCAARSYTYTAPIYGYWGQGTQVTVSS | high polyreactivity
QVQLVESGGGLVQAGGSLRLSCAGSGSTLTWNDMGWYRHAPGKERELVASITQSGDSTYYADSVKGRFTISRDNAKNTVYLQMNSLKPEDTAVYYCSGVYTYPLGYYHYTYDYWGQGTQVTVSS | low polyreactivity
QVQLVESGGGLVQAGGSLRLSCAASGFTFVPYAMGWYRPAPGKERELLAAIDFDDATTYYADSVKGRFTISRDNAKNTVYLQMNSLKPEDTAVYYCAAVYYRRSYQGGYEYWGQGTQVTVSS | high polyreactivity
QVQLVESGGGLVQAGGSLRLSCAASGRIIRGYVMGWYRQAPRKEREMVAITIGAGRTYYADSVKGRFTISRDNAKNTVYLQMNSLIPEDTAVYYCAADTYSTSGYYYWGQGTQVTVSS | low polyreactivity
QVQLVESGGGLVQAGGRLRLSCAASGSTITYYTMGWYRQAPGKERELVAAISGSGGRTYYADSVKGRFTISRDNAKNTVYLQMNSLKPEDTAVYYCAAVYQLSRYDYWGQGTQVTVSS | high polyreactivity
QVQLVESGGGLVQAGGSLRLSCAASGITFIKNAMGWYRQAPGKERELVAAISRSGGRTYYADSVKGRFTISRDNAKNTVYLQMNSLKPEDTAVYYCAAVTQRSYFYDYWGQGTQVTVSS | high polyreactivity
QVQLVESGGGIVHAGGSLRLSCAASGIIFLFYAMGWYRQARVKERELVASITWSGGSTYYADSVKGRFTISRDNAKNNVFLQMLSLKPEDTSVYYCAASVNIISYLVHSEFLGGELDYWGQGTQVTVSS | low polyreactivity
QVQLVESGGGLVQAGGSLRLSCAASGYTFRYNTLGGYSQAPGKEREFVAAISSGVGNTYFAVSVKGRFTISRDNAKNTVYLQMNSLKPEDTAVYYCNADYKSSYYWYLWYNYWGQGTQVTVSS | low polyreactivity
QVQLVESGGGLVQAGGSLRLSCAASGRIFGYNVMGWYIQAPGKERELVAAISWGTGSTYADSMKGRFTISRDNAKKTVYLQMNSLIPVDTAVYYCAADSFIPPYDHWGQGTQVTVSS | low polyreactivity
QVQLEESGGGLVQAGGSLRLSCAASGRTFWLYAMGRYRQAPGKEREFVASISSSGDSTYYADSVKGRFTISRDNAKNTVYLQMNSLKPEDTAVYDCAARPSRRYLRNGLDYWGQGTQVTVSS | high polyreactivity
QVQLVESGGGLVQARGSLRLSCAASGSTFAYNAMGWYRKAPGKERELVADITSTGTSTYADSVKGRFTISRDNAKNTVYLQMNSLKPEDTAVYYCNADYDSTYVGYDYWGQGTQVTVSS | low polyreactivity
QVQLVESGGGLVQAGGSLRLSCAASGSIFDDNAMGWYRQAPGKERELVATINYGGGRTSYADSVKGRSTISRDNAKNTVYLQMNSLKPEDTAVYYCAADPRQKEDYWGQGTQVTVSS | low polyreactivity
QVHLVESGGGLVQAGGSLGLSCAASGFTFANNAMGWYRQAPGKERELVAAISSSGGSTYYADSVKVRFTISRDNAKKTVYLQMNSLKPEDTAVYYCAARRRGSYYGYGYWGQGTQVTVSS | high polyreactivity
QAQLQESGGSLVQAGGGLRLSCAASGYISVGSVMGWYRQAPSKERELVASIDQGANTNYADSVKGRFTISRDNAKNNVYLQMNSLKPEDSAVYYCATETTYILNYWGQGTQVTVSS | low polyreactivity
QVQLVESGGGLVQAGGSLRLSCAASGITFYGYAMGWYRQAPGKERELVAAITRGGSTNYADSVKGRFTISRDNAKITPYLQMNSLKPEDTAVYYCNTYVGRRPGYGYWGQGTQVTVSS | high polyreactivity
QVQLVESGGGLVQAGGSLRLSCAASGRIFYPYAMGWYRQAPGKERELVAAISSSGGSTYYADSVKGRFTISRDNAKNTVYLQMNSLKPEDTAVYYCNKYSYTYQNPYDSWGQGTQVTVSS | high polyreactivity
QVQLVESGGGLVQAGGSLRLSCAASGSTFRGYAMGWYRQAPGKERELVAAISWSGVSTYYADSVKGRFTISRDNAKNTVYLQMNSLKPEDTAVYYCAAGYSSAYLRFGYWGQGTQVTVSS | low polyreactivity
